Reference: publication PMC9352551, “Energetic determinants of animal cell polarity regulator Par-3 interaction with the Par complex” (The Journal of Biological Chemistry, 2022)

T1: Par complex (his-Par-6, aPKC) (Drosophila, UniProt O97111 1-351; A1Z9X0 1-606)
T1 construct: Par-6, Drosophila, residues 1-351; atypical protein kinase C (aPKC), Drosophila, residues 1-606; Construct as in PMID 32084408; also called full Par complex; source: HEK 293F, transfected (pCMV), purified (Ni-NTA or cobalt resin, Source Q anion exchange)
T1 sequence (looked up) 1: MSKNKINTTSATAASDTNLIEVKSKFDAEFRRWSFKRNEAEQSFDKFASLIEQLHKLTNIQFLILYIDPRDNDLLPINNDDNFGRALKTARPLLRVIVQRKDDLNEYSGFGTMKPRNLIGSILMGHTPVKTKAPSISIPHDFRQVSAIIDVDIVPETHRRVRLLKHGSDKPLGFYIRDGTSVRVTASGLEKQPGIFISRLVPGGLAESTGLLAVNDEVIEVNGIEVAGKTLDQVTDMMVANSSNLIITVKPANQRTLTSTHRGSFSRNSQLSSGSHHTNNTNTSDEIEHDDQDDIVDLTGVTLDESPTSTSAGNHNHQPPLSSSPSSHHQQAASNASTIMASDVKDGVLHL
T1 sequence (looked up) 2: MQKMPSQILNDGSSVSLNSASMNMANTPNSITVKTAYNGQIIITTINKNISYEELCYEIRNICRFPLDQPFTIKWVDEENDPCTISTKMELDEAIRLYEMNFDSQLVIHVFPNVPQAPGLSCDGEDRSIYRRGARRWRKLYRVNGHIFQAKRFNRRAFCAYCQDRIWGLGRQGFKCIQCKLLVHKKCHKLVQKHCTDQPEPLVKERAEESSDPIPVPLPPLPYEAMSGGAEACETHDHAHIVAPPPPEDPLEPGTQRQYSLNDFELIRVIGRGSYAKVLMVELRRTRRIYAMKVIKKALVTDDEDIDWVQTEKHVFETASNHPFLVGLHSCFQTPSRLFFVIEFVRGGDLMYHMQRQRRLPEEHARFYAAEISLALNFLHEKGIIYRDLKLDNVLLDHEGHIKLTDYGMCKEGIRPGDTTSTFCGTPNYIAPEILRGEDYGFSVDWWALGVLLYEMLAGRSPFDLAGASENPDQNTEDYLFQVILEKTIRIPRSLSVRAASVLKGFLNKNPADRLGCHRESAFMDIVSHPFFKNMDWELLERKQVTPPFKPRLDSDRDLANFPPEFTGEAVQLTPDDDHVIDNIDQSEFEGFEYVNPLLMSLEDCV

T2: Par complex Par-6ΔPBM (Drosophila, UniProt O97111 1-343; A1Z9X0 1-606)
T2 construct: aPKC, Drosophila, residues 1-606; Construct as in PMID 32084408; also called Par complex lacking the Par-6 PBM; Par-6ΔPBM/aPKC; source: HEK 293F, transfected (pCMV), purified (Ni-NTA or cobalt resin, Source Q anion exchange)
T2 sequence (looked up) 1: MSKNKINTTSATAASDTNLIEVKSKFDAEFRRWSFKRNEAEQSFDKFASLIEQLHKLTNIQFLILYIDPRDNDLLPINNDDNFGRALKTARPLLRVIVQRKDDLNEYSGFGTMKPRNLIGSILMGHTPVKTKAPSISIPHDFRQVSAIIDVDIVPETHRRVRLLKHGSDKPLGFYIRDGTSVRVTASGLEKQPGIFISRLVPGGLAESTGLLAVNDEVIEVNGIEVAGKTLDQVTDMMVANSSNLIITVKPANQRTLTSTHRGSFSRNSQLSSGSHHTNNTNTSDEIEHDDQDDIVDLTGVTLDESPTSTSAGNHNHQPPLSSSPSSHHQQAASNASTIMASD
T2 sequence (looked up) 2: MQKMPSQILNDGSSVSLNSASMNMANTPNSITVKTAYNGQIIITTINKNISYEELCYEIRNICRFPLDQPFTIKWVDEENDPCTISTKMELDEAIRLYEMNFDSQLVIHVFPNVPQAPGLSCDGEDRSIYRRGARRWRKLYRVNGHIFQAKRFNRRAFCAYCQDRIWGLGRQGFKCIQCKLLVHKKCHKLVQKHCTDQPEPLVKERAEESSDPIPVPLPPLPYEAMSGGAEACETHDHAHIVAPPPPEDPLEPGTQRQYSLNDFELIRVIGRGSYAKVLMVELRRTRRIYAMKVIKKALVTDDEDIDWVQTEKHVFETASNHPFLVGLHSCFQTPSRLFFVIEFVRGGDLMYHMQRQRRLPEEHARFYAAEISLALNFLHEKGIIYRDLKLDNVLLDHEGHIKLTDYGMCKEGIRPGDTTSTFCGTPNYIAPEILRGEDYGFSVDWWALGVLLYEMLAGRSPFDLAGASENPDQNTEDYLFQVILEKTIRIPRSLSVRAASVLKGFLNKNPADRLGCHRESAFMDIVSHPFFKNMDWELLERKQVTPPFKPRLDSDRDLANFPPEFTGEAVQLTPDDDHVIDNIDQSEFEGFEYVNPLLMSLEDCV

B1: MBP-Par-3 PDZ1-APM (domain or fragment, Drosophila, UniProt O96782 309-987, looked up)
chain: DGEMLLIINEYGSPLGLTALPDKEHGGGLLVQHVEPGSRAERGQLRRDDRILEINGIKLIGLTESQVQEQLRRALESSELRVRVLRGDRNRRQQRDSKVADMVEVATVSPTRKPHAAPVGTSLQVANTRKLGRKIQIMLKKGPNGLGFSVTTRDNPAGAHCPIYIKNILPRGAAIEDGRLKPGDRLLEVDGTPMTGKTQTDVVAILRGMPAGATVRIVVSRQQELAEQADQPAEKSAGVAVAPSVAPPAVPAAAAPAPPIPVQKSSSARSLFTHQQQSQLNESQHFIDAGSESAASNDSLPPSSNSWHSREELTLHIPVHDTEKAGLGVSVKGKTCSNLNASGSSASSGSNGLMKHDGDLGIFVKNVIHGGAASRDGRLRMNDQLLSVNGVSLRGQNNAEAMETLRRAMVNTPGKHPGTITLLVGRKILRSASSSDILDHSNSHSHSHSNSSGGSNSNGSGNNNNSSSNASDNSGATVIYLSPEKREQRCNGGGGGGSAGNEMNRWSNPVLDRLTGGICSSNSAQPSSQQSHQQQPHPSQQQQQQRRLPAAPVCSSAALRNESYYMATNDNWSPAQMHLMTAHGNTALLIEDDAEPMSPTLPARPHDGQHCNTSSANPSQNLAVGNQGPPINTVPGTPSTSSNFDATYSSQLSLETNSGVEHFSRDALGRRSISEKHHA
notes: Par-3 (Bazooka), Drosophila, residues 309-987 (PDZ1 to the aPKC phosphorylation motif); From pMAL; construct as in PMID 32084408; not shown: MBP, N-terminal, kept; His tag, C-terminal, kept

Experiments:
Experiment in all cases: supernatant depletion assay; MBP-Par-3 (C-terminal his-tag, his-purified) on amylose resin (solid phase); soluble protein left in the supernatant quantified on a Coomassie gel; 10 min at 20 °C; 10 mM Hepes pH 7.5, 100 mM NaCl, 1 mM DTT, 200 μM ATP, 5 mM MgCl2, 0.1% Tween-20; 'apparent'
Conditions in all cases: both partners purified
[1] = molecular target: B1
[2] = molecular target: T1, Par complex (his-Par-6, aPKC)
[3] = molecular target: T2, Par complex Par-6ΔPBM

binding result [1] | binding result [2] | binding result [3] | Binder
binds | – | – | aPKC KD-PBM (domain or fragment, Drosophila, UniProt A1Z9X0 259-606, looked up, From pBH; also called his aPKC kinase domain-PBM; aPKC kinase domain–PBM; source: E. coli BL21 (DE3), his-purified (Ni-NTA) partially under denaturing conditions (8 M urea)) YSLNDFELIRVIGRGSYAKVLMVELRRTRRIYAMKVIKKALVTDDEDIDWVQTEKHVFETASNHPFLVGLHSCFQTPSRLFFVIEFVRGGDLMYHMQRQRRLPEEHARFYAAEISLALNFLHEKGIIYRDLKLDNVLLDHEGHIKLTDYGMCKEGIRPGDTTSTFCGTPNYIAPEILRGEDYGFSVDWWALGVLLYEMLAGRSPFDLAGASENPDQNTEDYLFQVILEKTIRIPRSLSVRAASVLKGFLNKNPADRLGCHRESAFMDIVSHPFFKNMDWELLERKQVTPPFKPRLDSDRDLANFPPEFTGEAVQLTPDDDHVIDNIDQSEFEGFEYVNPLLMSLEDCV
– | binds | binds | B1
